From patent US20240042006A1 (KOREA UNIVERSITY RESEARCH AND BUSINESS FOUNDATION SEJONG …, published 2024)

B1: PCNA2dm (other)
chain: MGSSHHHHHHSSGLVPRGSHMMKAKVIDAVSFSYILRTVGDFLSEANFIVTKEGIRVSGIDPSRVVFLDIFLPSSYFEGFEVSQEKEIIGFKLEDVNDILKRVLKDDTLILSSNESKLTLTFDGEFTRSFELPLIQVESTQPPSVNLEFPFKAQLLTITFADIIDELSDLGEVLNIHSKENKLYFEVIGDLVTVKVELSTDNGTLLEASGADVSSSYGMEYVANTTKMRRASDSMELYFGSQIPLKLRFKLPQEGYGDFYIAPRAD
notes: also called second scaffold fragment 210; PCNA2 S172V/A174V mutant subunit
B3: PCNA2 (other, Sulfolobus solfataricus, UniProt Q97Z84 1-245, looked up)
chain: MKAKVIDAVSFSYILRTVGDFLSEANFIVTKEGIRVSGIDPSRVVFLDIFLPSSYFEGFEVSQEKEIIGFKLEDVNDILKRVLKDDTLILSSNESKLTLTFDGEFTRSFELPLIQVESTQPPSVNLEFPFKAQLLTITFADIIDELSDLGEVLNIHSKENKLYFEVIGDLSTAKVELSTDNGTLLEASGADVSSSYGMEYVANTTKMRRASDSMELYFGSQIPLKLRFKLPQEGYGDFYIAPRAD
notes: also called PCNA2 wild-type subunit

Experiments:
Experiment in all cases: BLI (BLItz, ForteBio); the partner on the sensor is not stated
PCNA3dm = molecular target: T1, PCNA3dm (Sulfolobus solfataricus)
T1 construct: also called third scaffold fragment 310; PCNA3 Y73F/S170V mutant subunit
T1 chain: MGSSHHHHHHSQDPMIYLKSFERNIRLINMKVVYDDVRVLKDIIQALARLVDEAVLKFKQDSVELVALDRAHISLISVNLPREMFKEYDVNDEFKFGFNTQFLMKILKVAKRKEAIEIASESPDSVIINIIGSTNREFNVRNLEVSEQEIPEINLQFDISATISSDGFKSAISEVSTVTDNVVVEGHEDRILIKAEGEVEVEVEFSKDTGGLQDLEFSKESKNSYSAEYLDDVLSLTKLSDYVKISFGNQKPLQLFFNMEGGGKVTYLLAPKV

PCNA2 = molecular target: B3
PCNA1 = molecular target: T2, PCNA1 (Sulfolobus solfataricus, UniProt P57766 1-249)
T2 construct: also called PCNA1 wild-type subunit
T2 sequence (looked up): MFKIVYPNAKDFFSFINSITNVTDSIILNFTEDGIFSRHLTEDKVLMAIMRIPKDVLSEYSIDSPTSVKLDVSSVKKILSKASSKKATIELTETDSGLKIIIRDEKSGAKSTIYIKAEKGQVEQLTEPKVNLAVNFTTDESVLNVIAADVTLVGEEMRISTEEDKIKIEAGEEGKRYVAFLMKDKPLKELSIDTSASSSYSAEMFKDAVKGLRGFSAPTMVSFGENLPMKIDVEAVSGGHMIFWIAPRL

PCNA2dm = molecular target: B1

Q: With B1 as the binder, how does the Kd (PCNA3dm) read?
A: The Kd was 571 nM.

B2: PCNA3 (other, Sulfolobus solfataricus, UniProt P57765 1-244, looked up)
chain: MKVVYDDVRVLKDIIQALARLVDEAVLKFKQDSVELVALDRAHISLISVNLPREMFKEYDVNDEFKFGFNTQYLMKILKVAKRKEAIEIASESPDSVIINIIGSTNREFNVRNLEVSEQEIPEINLQFDISATISSDGFKSAISEVSTVTDNVVVEGHEDRILIKAEGESEVEVEFSKDTGGLQDLEFSKESKNSYSAEYLDDVLSLTKLSDYVKISFGNQKPLQLFFNMEGGGKVTYLLAPKV
notes: also called PCNA3 wild-type subunit
Q: For B2, which Kd (PCNA2) is on record?
A: Its Kd is 3170 nM.

Q: With B3 as the binder, how does the Kd (PCNA1) read?
A: Its Kd is 6.31 nM.

B4: PCNA1dm (other)
chain: MFKIVYPNAKDFFSFINSITNVTDSIILNFTEDGIFSRHLTEDKVLMAIMRIPKDVLSEYSIDSPTSVKLDVSSVKKILSKASSKKATIELTETDSGLKIIIRDEKSGAKSKIKIKAEKGQVEQLTEPKVNLAVNFTTDESVLNVIAADVTLVGEEMRISTEEDKIKIEAGEEGKRYVAFLMKDKPLKELSIDTSASSSYSAEMFKDAVKGLRGFSAPTMVSFGENLPMKIDVEAVSGGHMIFWIAPRL
notes: also called first scaffold fragment 110; PCNA1 T112K/Y114K mutant subunit
Q: With B4 as the binder, how does the Kd (PCNA2dm) read?
A: Its Kd is 2.65 nM.
